# Reference: the Human Domainome abundance scans (Beltran et al. 2025)
# ± gives the uncertainty stated by the source.
# B1: Nanos homolog 2, residues 63 to 115; numbered along this chain, P60321 (parent)
# chain: CNFCKHNGESRHVYSSHQLKTPDGVVVCPILRHYVCPVCGATGDQAHTLKYCP
# Variants of: B1
# Experiment: abundance fitness (aPCA) (normalised: wild type 0, dead -1); higher = more abundant; growth selection in yeast, the domain comes from the species named
# Conditions: Homo sapiens
row,Variant,abundance fitness
1,L31M,-0.153 ± 0.11
2,L31S,-0.433 ± 0.09
3,L31C,-0.416 ± 0.14
4,L31Y,-0.66 ± 0.24
5,L31A,-0.117 ± 0.069
6,L31T,-0.207 ± 0.13
7,L31K,-0.271 ± 0.11
8,L31I,-0.16 ± 0.17
9,L31W,-0.566 ± 0.15
10,L31P,-0.444 ± 0.15
11,C1Y,-0.762 ± 0.4
12,C1S,-0.337 ± 0.17
13,C1W,-0.941 ± 0.21
14,C1F,-0.347 ± 0.22
15,G43R,-0.135 ± 0.09
16,G43H,-0.701 ± 0.3
17,G43V,-0.679 ± 0.092
18,G43Y,-0.703 ± 0.11
19,G43D,-0.125 ± 0.1
20,D23Y,-0.119 ± 0.12
21,D23I,-0.418 ± 0.13
22,D23F,-0.371 ± 0.1
23,D23Q,-0.061 ± 0.072
24,D23G,-0.132 ± 0.084

row,Variant,abundance fitness
1,D23H,-0.307 ± 0.21
2,D23M,-0.234 ± 0.093
3,D23N,-0.044 ± 0.096
4,D44F,0.009 ± 0.15
5,D44N,-0.047 ± 0.1
6,D44W,-0.429 ± 0.11
7,D44L,-0.453 ± 0.084
8,D44E,-0.334 ± 0.14
9,D44I,-0.457 ± 0.25
10,D44M,-0.271 ± 0.063
11,D44G,-0.048 ± 0.059
12,T42R,-0.151 ± 0.07
13,T42E,-0.128 ± 0.12
14,T42W,-0.37 ± 0.095
15,T42C,-0.223 ± 0.096
16,T42A,-0.162 ± 0.078
17,T42F,-0.395 ± 0.39
18,T42H,-0.481 ± 0.23
19,V38N,-0.012 ± 0.13
20,V38M,-0.003 ± 0.061
21,V38T,0.016 ± 0.11
22,V38F,0.084 ± 0.083
23,V38H,-0.222 ± 0.16
24,V38D,-0.184 ± 0.17

row,Variant,abundance fitness
1,H6M,-0.047 ± 0.1
2,H6W,-0.451 ± 0.11
3,H6L,-0.096 ± 0.088
4,H6R,0.078 ± 0.05
5,H6G,-0.011 ± 0.056
6,H6S,0.039 ± 0.072
7,H6K,0.158 ± 0.059
8,H6E,-0.027 ± 0.091
9,H6A,-0.011 ± 0.07
10,H12E,0.226 ± 0.063
11,H12G,0.056 ± 0.084
12,H12F,-0.031 ± 0.14
13,H12Y,-0.101 ± 0.13
14,H12D,0.188 ± 0.085
15,Y34K,-0.03 ± 0.14
16,Y34C,-0.066 ± 0.06
17,Y34A,-0.071 ± 0.07
18,Y34G,-0.229 ± 0.051
19,Y34I,-0.107 ± 0.15
20,R11A,-0.034 ± 0.081
21,R11C,-0.497 ± 0.19
22,R11I,0.063 ± 0.12
23,R11H,-0.039 ± 0.19
24,K50S,-0.179 ± 0.086

row,Variant,abundance fitness
1,K50I,-0.809 ± 0.3
2,K50H,-0.249 ± 0.23
3,K50Y,-0.318 ± 0.3
4,K50N,-0.1 ± 0.17
5,K50E,-0.185 ± 0.11
6,K50D,-0.484 ± 0.22
7,K50C,-0.42 ± 0.17
8,K50P,0.145 ± 0.13
9,K50G,-0.298 ± 0.063
10,K50T,-0.117 ± 0.064
11,G8T,-0.359 ± 0.1
12,G8A,-0.196 ± 0.075
13,G8M,-0.137 ± 0.069
14,G8R,-0.063 ± 0.076
15,G8E,-0.119 ± 0.11
16,G8S,-0.08 ± 0.077
17,G8H,-0.092 ± 0.059
18,G8K,-0.174 ± 0.13
19,C52K,-0.488 ± 0.1
20,C52S,-0.432 ± 0.12
21,C52A,-0.777 ± 0.2
22,C52P,-0.249 ± 0.39
23,C52Q,-0.574 ± 0.19
24,C52R,-0.506 ± 0.085

row,Variant,abundance fitness
1,C52D,-0.505 ± 0.18
2,L49C,-0.368 ± 0.12
3,L49F,-0.076 ± 0.083
4,L49V,0.104 ± 0.067
5,Y14V,-0.011 ± 0.085
6,Y14C,0.036 ± 0.11
7,N7C,-0.316 ± 0.097
8,N7L,-0.311 ± 0.062
9,N7T,-0.122 ± 0.1
10,N7G,-0.144 ± 0.1
11,A46L,-0.649 ± 0.11
12,A46D,-0.426 ± 0.23
13,A46I,-0.308 ± 0.17
14,A46G,-0.133 ± 0.068
15,A46W,-0.77 ± 0.22
16,A46Y,-0.47 ± 0.12
17,A46P,-0.403 ± 0.13
18,A46M,-0.6 ± 0.15
19,A46H,-0.124 ± 0.28
20,A46Q,-0.587 ± 0.12
21,V13N,0.064 ± 0.099
22,V13G,-0.007 ± 0.087
23,V13K,0.113 ± 0.078
24,V13L,-0.05 ± 0.074

row,Variant,abundance fitness
1,V13E,-0.058 ± 0.094
2,T48H,-0.363 ± 0.18
3,T48F,-0.326 ± 0.073
4,T48D,-0.347 ± 0.18
5,T48V,-0.045 ± 0.079
6,T48S,-0.19 ± 0.077
7,F3G,-1.2 ± 0.11
8,F3I,-0.399 ± 0.25
9,F3D,-0.701 ± 0.1
10,F3R,-0.848 ± 0.046
11,F3L,-0.576 ± 0.075
12,F3K,-1.44 ± 0.43
13,F3Q,-0.933 ± 0.094
14,F3Y,-0.117 ± 0.11
15,F3C,-0.632 ± 0.084
16,F3N,-0.877 ± 0.27
17,F3H,-0.502 ± 0.13
18,F3E,-1.22 ± 0.25
19,G24P,-0.478 ± 0.16
20,G24W,-1.12 ± 0.27
21,G24H,-0.381 ± 0.18
22,A41L,-0.032 ± 0.089
23,A41V,-0.102 ± 0.068
24,A41K,-0.173 ± 0.11

row,Variant,abundance fitness
1,A41M,-0.05 ± 0.082
2,A41Y,-0.184 ± 0.089
3,A41F,-0.379 ± 0.081
4,S15I,-0.258 ± 0.1
5,S15H,-0.095 ± 0.11
6,S15K,-0.099 ± 0.079
7,S15L,-0.002 ± 0.071
8,S15P,-0.326 ± 0.13
9,S15W,-0.333 ± 0.1
10,S15G,0.051 ± 0.098
11,S15F,-0.135 ± 0.1
12,V26S,-0.322 ± 0.092
13,V26T,-0.111 ± 0.077
14,V26K,-0.031 ± 0.15
15,V26L,-0.036 ± 0.083
16,V26W,-0.46 ± 0.071
17,V26R,-0.523 ± 0.087
18,V26E,-0.574 ± 0.13
19,V26A,-0.369 ± 0.11
20,V26P,-0.359 ± 0.17
21,C36H,-0.623 ± 0.31
22,C36E,-0.627 ± 0.1
23,C36D,-0.444 ± 0.11
